Tests used:
[1] = target: T1, RON-ECD-Fc (human, UniProt Q04912 25-957); test: ELISA, coated ECD-Fc, antibody 0.010 ng/mL
T1 construct: extracellular domain; Bought reagent; not shown: Fc part of the bought fusion
T1 sequence (looked up): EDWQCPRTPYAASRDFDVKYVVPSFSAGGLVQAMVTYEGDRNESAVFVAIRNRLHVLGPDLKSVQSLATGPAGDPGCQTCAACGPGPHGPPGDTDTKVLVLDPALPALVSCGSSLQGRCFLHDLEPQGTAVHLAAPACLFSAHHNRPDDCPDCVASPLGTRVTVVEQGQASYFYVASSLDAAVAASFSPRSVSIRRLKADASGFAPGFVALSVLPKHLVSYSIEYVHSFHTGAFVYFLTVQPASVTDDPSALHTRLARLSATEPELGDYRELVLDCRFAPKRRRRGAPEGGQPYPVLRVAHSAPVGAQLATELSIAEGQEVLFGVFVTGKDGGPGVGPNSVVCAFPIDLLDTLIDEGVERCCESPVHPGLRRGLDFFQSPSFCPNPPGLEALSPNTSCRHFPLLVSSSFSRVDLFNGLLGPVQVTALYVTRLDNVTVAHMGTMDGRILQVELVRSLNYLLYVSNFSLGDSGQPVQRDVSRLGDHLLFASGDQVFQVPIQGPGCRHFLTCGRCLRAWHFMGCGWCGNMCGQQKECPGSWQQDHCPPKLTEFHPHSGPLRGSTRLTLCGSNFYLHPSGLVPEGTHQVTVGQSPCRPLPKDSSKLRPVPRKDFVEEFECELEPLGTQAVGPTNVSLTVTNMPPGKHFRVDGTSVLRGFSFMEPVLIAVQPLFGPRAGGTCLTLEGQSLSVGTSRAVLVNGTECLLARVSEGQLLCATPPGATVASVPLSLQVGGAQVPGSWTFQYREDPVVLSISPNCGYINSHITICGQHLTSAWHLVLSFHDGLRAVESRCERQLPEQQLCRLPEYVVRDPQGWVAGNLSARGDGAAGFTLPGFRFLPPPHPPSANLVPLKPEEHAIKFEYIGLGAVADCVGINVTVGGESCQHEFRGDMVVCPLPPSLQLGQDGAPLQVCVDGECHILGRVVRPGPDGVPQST
Method: (§1) Wells of 96-well EIA/RIA high binding plates (Costar, #2592) are coated with 100 μL of 1 μg/mL human c-Met extracellular domain (ECD)-Fc-Flis fusion (SEQ ID NO:72), RON-ECD-Fc (R&D Systems, #1947-MS), or PlexinA2-ECD-Fc (Abnova, Taipei, Taiwan #H00005362-P01) in coating buffer (BioFX Labs, # COAT-1000-01) overnight at 4° C. […] After the plates are washed, 100 μL/well of substrate solution (BioFx, #TMBW-1000-01) are added and the plates are incubated for 10 min. at room temperature. 100 μL/well of stop solution (BioFx, # LSTP-1000-01) are added to stop the reaction. The colorimetric signals are developed and read at 450 nm using a SpectraMax 190 plate reader (Molecular Devices, Sunnyvale, Calif.). c-Met antibody binding to c-Met, RON and PlexinA2 ECDs is proportional to color signal production.

[2] = target: T2, Human c-Met-Flis-Fc ECD (human); test: ELISA, coated ECD-Fc, antibody 0.010 ng/mL
T2 construct: also called human c-Met extracellular domain (ECD)-Fc-Flis fusion; Human cMet-ECD-Fc-Flis
T2 sequence (chain, as listed by the source limits assumed): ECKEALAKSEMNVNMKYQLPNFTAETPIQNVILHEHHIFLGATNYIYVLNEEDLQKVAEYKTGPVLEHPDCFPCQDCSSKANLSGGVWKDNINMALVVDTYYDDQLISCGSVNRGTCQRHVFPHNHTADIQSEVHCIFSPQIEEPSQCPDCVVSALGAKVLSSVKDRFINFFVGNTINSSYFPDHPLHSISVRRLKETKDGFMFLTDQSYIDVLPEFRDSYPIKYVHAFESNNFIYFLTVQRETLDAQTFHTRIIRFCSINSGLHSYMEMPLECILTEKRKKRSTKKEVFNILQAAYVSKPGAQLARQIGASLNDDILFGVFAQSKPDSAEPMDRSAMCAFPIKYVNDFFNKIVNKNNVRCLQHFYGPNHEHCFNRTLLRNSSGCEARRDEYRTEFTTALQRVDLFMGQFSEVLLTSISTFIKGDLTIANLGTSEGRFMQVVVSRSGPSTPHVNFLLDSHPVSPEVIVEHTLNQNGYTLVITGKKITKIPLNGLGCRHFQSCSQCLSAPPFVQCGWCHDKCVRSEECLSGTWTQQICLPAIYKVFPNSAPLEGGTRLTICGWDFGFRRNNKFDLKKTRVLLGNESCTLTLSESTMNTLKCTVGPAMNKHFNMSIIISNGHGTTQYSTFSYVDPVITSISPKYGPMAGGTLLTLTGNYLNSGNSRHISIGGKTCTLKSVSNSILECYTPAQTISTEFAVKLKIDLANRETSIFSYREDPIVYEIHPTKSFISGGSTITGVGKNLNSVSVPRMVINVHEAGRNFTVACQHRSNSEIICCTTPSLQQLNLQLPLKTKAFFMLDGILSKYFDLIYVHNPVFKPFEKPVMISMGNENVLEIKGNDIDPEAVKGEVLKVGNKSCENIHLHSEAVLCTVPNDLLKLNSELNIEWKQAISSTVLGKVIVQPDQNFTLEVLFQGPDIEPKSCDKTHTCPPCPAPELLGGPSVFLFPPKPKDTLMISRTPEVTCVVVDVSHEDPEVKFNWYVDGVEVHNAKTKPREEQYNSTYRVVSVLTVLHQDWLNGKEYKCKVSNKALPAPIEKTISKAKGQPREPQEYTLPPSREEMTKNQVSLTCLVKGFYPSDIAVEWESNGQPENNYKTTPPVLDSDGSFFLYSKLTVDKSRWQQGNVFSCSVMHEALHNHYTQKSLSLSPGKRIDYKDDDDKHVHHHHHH
Method: as §1

[3] = target: T3, PlexinA2-ECD-Fc (human, UniProt O75051 35-1237); test: ELISA, coated ECD-Fc, antibody 0.010 ng/mL
T3 construct: extracellular domain; Bought reagent
T3 sequence (looked up): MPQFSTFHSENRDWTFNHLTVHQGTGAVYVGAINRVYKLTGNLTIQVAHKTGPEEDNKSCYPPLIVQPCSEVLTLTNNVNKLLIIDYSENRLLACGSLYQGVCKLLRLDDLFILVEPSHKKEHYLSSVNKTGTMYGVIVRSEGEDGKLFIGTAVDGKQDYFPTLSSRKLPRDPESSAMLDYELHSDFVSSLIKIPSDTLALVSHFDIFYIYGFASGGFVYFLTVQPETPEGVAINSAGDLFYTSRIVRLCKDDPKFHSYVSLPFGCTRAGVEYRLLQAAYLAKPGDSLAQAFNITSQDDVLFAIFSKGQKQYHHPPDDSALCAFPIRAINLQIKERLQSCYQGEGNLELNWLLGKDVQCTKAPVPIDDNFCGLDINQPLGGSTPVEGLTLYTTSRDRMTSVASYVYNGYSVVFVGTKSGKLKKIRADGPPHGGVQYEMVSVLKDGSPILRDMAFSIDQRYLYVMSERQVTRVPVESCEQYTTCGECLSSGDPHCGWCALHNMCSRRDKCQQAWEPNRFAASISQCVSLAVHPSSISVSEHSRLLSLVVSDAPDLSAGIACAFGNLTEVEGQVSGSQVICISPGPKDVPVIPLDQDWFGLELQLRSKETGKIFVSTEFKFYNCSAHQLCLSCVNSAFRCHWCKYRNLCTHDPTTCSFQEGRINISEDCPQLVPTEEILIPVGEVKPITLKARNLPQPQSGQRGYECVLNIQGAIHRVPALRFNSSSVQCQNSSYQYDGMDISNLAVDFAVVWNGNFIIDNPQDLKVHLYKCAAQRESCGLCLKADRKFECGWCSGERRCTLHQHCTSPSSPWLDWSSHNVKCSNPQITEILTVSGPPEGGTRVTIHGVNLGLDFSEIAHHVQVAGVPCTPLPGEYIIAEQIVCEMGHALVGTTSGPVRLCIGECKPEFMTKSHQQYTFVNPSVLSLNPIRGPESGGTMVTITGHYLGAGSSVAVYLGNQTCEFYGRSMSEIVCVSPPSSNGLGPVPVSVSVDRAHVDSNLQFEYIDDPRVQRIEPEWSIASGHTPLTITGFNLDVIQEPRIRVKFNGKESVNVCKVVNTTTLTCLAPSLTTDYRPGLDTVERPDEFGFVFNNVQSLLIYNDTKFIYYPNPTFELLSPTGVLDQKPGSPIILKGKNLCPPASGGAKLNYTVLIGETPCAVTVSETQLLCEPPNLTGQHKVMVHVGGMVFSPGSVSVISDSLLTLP
Method: as §1

[4] = target: T1, RON-ECD-Fc; test: ELISA, coated ECD-Fc, antibody 0.000 ng/mL
Method: as §1

[5] = target: T2, Human c-Met-Flis-Fc ECD; test: ELISA, coated ECD-Fc, antibody 0.000 ng/mL
Method: as §1

[6] = target: T3, PlexinA2-ECD-Fc; test: ELISA, coated ECD-Fc, antibody 0.000 ng/mL
Method: as §1

B1: C8-6 (antibody, human IgG2, kappa, V domains shown)
VH: QVQLVQSGAEVKKPGASVKVSCKASGYTFTDYYMHWVRQAPGQGLEWMGRVNPNRGGTTYNQKFEGRVTMTTDTSTSTAYMELRSLRSDDTAVYYCARTNWLDYWGQGTTVTVSS
VL: DIQMTQSPSSLSASVGDRVTITCSVSSSVSSIYLHWYQQKPGKAPKLLIYSTSNLASGVPSRFSGSGSGTDFTLTISSLQPEDFATYYCIQYSGYPLTFGGGTKVEIKR
notes: Called IgG4, kappa; also called Mab C8-6
- Average A450 nm [1]: 0.097 A450 nm
- Average A450 nm [2]: 0.335 A450 nm
- Average A450 nm [3]: 0.095 A450 nm
- Average A450 nm [4]: 0.11 A450 nm
- Average A450 nm [5]: 0.322 A450 nm
- Average A450 nm [6]: 0.109 A450 nm
